Results from IntAct's records for PubMed 20588253.

B1: Mitogen-activated protein kinase kinase kinase 2 (Homo sapiens), Q9Y2U5 (parent)
chain: MDDQQALNSIMQDLAVLHKASRPALSLQETRKAKSSSPKKQNDVRVKFEHRGEKRILQFPRPVKLEDLRSKAKIAFGQSMDLHYTNNELVIPLTTQDDLDKAVELLDRSIHMKSLKILLVINGSTQATNLEPLPSLEDLDNTVFGAERKKRLSIIGPTSRDRSSPPPGYIPDELHQVARNGSFTSINSEGEFIPESMDQMLDPLSLSSPENSGSGSCPSLDSPLDGESYPKSRMPRAQSYPDNHQEFSDYDNPIFEKFGKGGTYPRRYHVSYHHQEYNDGRKTFPRARRTQGTSLRSPVSFSPTDHSLSTSSGSSIFTPEYDDSRIRRRGSDIDNPTLTVMDISPPSRSPRAPTNWRLGKLLGQGAFGRVYLCYDVDTGRELAVKQVQFDPDSPETSKEVNALECEIQLLKNLLHERIVQYYGCLRDPQEKTLSIFMEYMPGGSIKDQLKAYGALTENVTRKYTRQILEGVHYLHSNMIVHRDIKGANILRDSTGNVKLGDFGASKRLQTICLSGTGMKSVTGTPYWMSPEVISGEGYGRKADIWSVACTVVEMLTEKPPWAEFEAMAAIFKIATQPTNPKLPPHVSDYTRDFLKRIFVEAKLRPSADELLRHMFVHYH

Variants of: B1
Settings: with chip_human STUB1, Q9UNE7
Chain of chip_human STUB1, Q9UNE7 (Q9UNE7 whole entry): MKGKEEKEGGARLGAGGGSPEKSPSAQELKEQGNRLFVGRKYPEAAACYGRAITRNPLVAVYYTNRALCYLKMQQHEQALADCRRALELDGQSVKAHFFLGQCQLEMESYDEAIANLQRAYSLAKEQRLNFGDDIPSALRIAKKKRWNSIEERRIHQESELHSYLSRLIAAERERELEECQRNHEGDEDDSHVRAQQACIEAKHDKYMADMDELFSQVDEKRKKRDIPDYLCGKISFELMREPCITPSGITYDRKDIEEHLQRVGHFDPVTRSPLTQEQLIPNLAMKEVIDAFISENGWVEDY

Row | effect of a mutation on the interaction | Variant
1 | disrupting interaction | K385M

Variants of: B1
Settings: with chip_human STUB1, Q9UNE7
Remark: another data set of the same source

Row | effect of a mutation on the interaction | Variant
2 | increasing interaction | K385M

Variants of: B1
Settings: with ubc_human UBC

Row | effect of a mutation on the interaction | Variant
3 | disrupting interaction | K385M
